Tested on: CC(C)=CCC/C(C)=C/CC/C(C)=C/CC/C(C)=C/COP(=O)(O)OP(=O)(O)O
Experiment: purified protein
Details: 50 mM HEPES pH 7.0, 100 mM KCl, 0.1 mM MgCl2, 10% glycerol, 30 °C, 1-25 µM GGPP, 30 s, product (-)-kolavenyl diphosphate

## SdKPS (Tr-SdKPS) (Salvia divinorum)
  Km: 1.9 ± 0.66 µM
  kcat: 0.88 ± 0.11 s⁻¹

From paper PMC5441855
